The target in this assay is T1, inhibin B (UniProt P05111 233-366; P09529 293-407).
T1 sequence (looked up) 1: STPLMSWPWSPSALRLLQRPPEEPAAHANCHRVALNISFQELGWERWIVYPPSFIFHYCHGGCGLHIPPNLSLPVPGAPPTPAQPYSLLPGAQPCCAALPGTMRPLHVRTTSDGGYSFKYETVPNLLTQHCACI
T1 sequence (looked up) 2: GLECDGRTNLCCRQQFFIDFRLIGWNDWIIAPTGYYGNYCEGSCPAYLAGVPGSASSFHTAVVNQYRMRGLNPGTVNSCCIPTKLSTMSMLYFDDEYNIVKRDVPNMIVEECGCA
Put plainly: SPR. Background: Surface plasmon resonance follows binding to a sensor surface in real time, without labels.

One may read the Kd as the constant that tells how readily two partners part at equilibrium. High values mean a looser complex, low ones a tighter complex.

B1: murine TGFBR3L extracellular domain (R36-R211) (domain or fragment, UniProt D3YZZ2 36-211, looked up)
chain: RRPLFSLELSDAEDAFPRRAGPLEVPADSHVFVQAALARPSPRWGLALHRCSVTPSSRPTLGPALVLLRGGCPADDSVSFSPPPRPDAASVSRFSFRLRPVFNASVQFLHCQISRCRRRSSHHRRAVRLTPVPLTPPAPLRCLPQDEACAGSSLSLGTDSPHLHMLTQPIVVTIPR
Molecule B1 yielded a Kd of 52 nM.

Values taken from publication PMC8673766 (Science Advances, 2021).
